Tests used:
Test in all cases: ELISA-type assay, F3 module coated
[1] = biological target: T1, Recombinant fibronectin module ^1F3 (Homo sapiens (Human), UniProt P02751 608-700)
T1 construct: Expressed with N-terminal His-tag, purified by Ni-NTA and ion-exchange chromatography; also called ^1F3 module

[2] = biological target: Recombinant fibronectin module ^3F3 (Homo sapiens (Human), UniProt P02751 810-900)
[3] = biological target: T2, Recombinant fibronectin modules ^1-2F3 (Homo sapiens (Human), UniProt P02751 608-809)
T2 construct: Expressed with N-terminal His-tag

Measured: binding result

Chain of Recombinant fibronectin module ^3F3 (P02751 other isoform, or with tags, fused parts or gaps limits assumed): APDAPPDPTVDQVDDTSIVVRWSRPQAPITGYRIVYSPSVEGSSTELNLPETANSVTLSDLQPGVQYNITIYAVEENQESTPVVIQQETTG
T1 sequence (P02751 608-700 limits assumed): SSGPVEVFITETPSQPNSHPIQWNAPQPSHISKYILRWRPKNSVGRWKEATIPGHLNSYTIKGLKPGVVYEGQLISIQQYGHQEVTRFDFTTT
T2 sequence (P02751 608-809 limits assumed): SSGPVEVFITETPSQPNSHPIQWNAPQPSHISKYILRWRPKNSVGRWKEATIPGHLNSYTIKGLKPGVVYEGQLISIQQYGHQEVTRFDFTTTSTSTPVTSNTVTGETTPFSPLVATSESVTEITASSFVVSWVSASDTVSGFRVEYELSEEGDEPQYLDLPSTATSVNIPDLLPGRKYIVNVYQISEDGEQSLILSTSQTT

B1: FnbpA peptide D3 (S. aureus fibronectin-binding peptide) (peptide)
peptide: GFNKHTEIIEEDTNKDKPSYQFGGHNSVDFEEDTLPK
notes: domain: D3; also called peptide D3 from FnbpA; D3 fragment of S. aureus FnbpA
no binding: all assays above

— patent US20090170751A1 (published 2009)
